# Measurements reported in patent US20210188940A1 (BIOAGE LABS, published 2021).
# Changes are numbered by the printed parent chain.
# T1: HMGB1 (amphoterin) (UniProt P09429 1-215, limits assumed)
# T1 sequence (looked up): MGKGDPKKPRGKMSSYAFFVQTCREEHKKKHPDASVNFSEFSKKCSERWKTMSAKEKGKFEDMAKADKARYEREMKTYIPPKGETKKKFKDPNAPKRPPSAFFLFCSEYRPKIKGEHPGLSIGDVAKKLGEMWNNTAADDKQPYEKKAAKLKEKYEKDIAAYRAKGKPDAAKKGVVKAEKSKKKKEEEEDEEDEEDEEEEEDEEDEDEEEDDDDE
# T2: S100A9 (UniProt P06702 1-114, limits assumed)
# T2 sequence (looked up): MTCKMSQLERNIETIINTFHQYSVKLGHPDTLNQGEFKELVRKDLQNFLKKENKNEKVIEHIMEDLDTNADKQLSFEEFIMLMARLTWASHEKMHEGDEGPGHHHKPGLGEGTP
# T3: S100A12 (UniProt P80511 1-92, limits assumed)
# T3 sequence (looked up): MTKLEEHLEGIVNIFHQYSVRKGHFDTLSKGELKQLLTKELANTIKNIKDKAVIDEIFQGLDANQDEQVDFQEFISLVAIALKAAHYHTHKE
# B1: Construct #12: RAGE V-C1-C2-V1stem(M/A)-IgG2 lower hinge-(IgG4CH2-CH3) (Fc fusion)
# chain: AQNITARIGEPLVLKCKGAPKKPPQRLEWKLNTGRTEAWKVLSPQGGGPWDSVARVLPNGSLFLPAVGIQDEGIFRCQAMNRNGKETKSNYRVRVYQIPGKPEIVDSASELTAGVPNKVGTCVSEGSYPAGTLSWHLDGKPLVPNEKGVSVKEQTRRHPETGLFTLQSELMVTPARGGDPRPTFSCSFSPGLPRHRALRTAPIQPRVWEPVPLEEVQLVVEPEGGAVAPGGTVTLTCEVPAQPSPQIHWMKDGVPLPLPPSPVLILPEIGPQDQGTYSCVATHSSHGPQESRAVSISIIEPGEEGPTAGEGFDKVREAEDSPQHAVECPPCAPPVAGGPSVFLFPPKPKDTLMISRTPEVTCVVVDVSQEDPEVQFNWYVDGVEVHNAKTKPREEQFNSTYRVVSVLTVLHQDWLNGKEYKCKVSNKGLPSSIEKTISKAKGQPREPQVYTLPPSQEEMTKNQVSLTCLVKGFYPSDIAVEWESNGQPENNYKTTPPVLDSDGSFFLYSRLTVDKSRWQEGNVFSCSVMHEALHNHYTQKSLSLSLGK
# notes: also called esRAGE-Fc fusion
# B2: Construct #16: RAGE V-C1-C2-V1stem(M/A)-IgG2 lower hinge-(IgG4CH2-CH3)-YTE (Fc fusion)
# chain: B1 chain with M353Y, S355T, T357E
# notes: also called #12 + YTE; esRAGE-Fc fusion
# Key:
# Assay in all cases: ELISA, ligand coated on plate, RAGE-Fc titrated, anti-IgG Fc-HRP detection; apparent Kd
# [1] = biological target: T4, CML-HSA (carboxymethylated human serum albumin) (human, UniProt P02768 25-609, carboxymethylated (CML); modified sites not stated)
# T4 construct: An advanced glycation end-product form of HSA, coated on the ELISA plate
# T4 sequence (P02768 25-609 limits assumed): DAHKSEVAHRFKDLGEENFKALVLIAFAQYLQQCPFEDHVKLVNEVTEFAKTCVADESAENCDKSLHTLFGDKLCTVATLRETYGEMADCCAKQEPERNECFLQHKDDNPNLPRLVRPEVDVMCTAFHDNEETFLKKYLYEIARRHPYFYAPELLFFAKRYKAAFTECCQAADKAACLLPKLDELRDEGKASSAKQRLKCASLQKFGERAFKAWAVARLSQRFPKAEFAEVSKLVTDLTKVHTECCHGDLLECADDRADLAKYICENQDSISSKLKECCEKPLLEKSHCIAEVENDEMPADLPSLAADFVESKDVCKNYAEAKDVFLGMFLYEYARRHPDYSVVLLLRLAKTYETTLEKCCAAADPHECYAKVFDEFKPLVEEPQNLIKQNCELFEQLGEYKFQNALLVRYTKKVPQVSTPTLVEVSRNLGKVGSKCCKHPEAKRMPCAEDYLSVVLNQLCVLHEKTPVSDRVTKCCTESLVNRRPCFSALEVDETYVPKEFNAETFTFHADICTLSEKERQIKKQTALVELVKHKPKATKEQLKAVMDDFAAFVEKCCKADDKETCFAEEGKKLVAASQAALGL
# Protocol: (§1) Functional ELISA assays were performed to assess the ligand binding characteristics of RAGE-Fc fusion proteins. Apparent binding affinities of RAGE-Fc fusion proteins to the RAGE ligands CML-HSA, HMGB1, S100A9 and S100A12 were measured for the following fusion proteins: Construct #1 (SEQ ID NO: 5), Construct #9 (SEQ ID NO: 53), Construct #10 (SEQ ID NO: 12), Construct #12 (SEQ ID NO: 15), and Construct #16 (SEQ ID NO: 16). Previous experiments were carried out to determine fundamental functionality of an ELISA, optimal coating concentrations and volumes, a dynamic range for the RAGE-Fc constructs, as well as optimized antibody dilutions and TMB development times.
# (§2) RAGE ligands CML-HSA, HMGB1, S100A9 and S100A12 were separately coated onto a coated plate (MaxiSorp™) at a concentration of 50 nanomolar (nM), 100 microliters (μL) per well. RAGE ligand CML-HSA was separately coated onto a coated plate (MaxiSorp™) at a concentration of 100 nanograms (ng), 100 μL per well. The plates were then incubated overnight at 4° C. to allow the protein to bind to the plate coating. Following the coating step, the plates were washed once with 150 μL of wash solution (2.67 mM potassium chloride, […], 136.9 mM sodium chloride, 8.10 mM sodium phosphate dibasic, 0.05% Tween-20). […] After the blocking step, two washes were performed with the wash solution. The RAGE-Fc fusion protein was then incubated on the wells in log10 dilution with each separate ligand for 120 minutes at 37° C. while shaking. After the RAGE-Fc binding step, three washes were performed with the wash solution. Binding of the RAGE-Fc fusion to […], HMGB1, S100A9, and S100A12 was detected with a horseradish peroxidase (HRP) conjugated antibody with antigen specificity to IgG Fc (Abcam, Cat. No. ab99759). 100 μL of antibody diluted 1:5000 in DBPS was added to the assay wells, followed by 60 minutes of incubation at 37° C. while shaking. The wells were then washed four times with the wash solution. 100 μL of TMB (ThermoFisher Scientific, Cat. No. 34029) was then added to each well.
# [2] = biological target: T1, HMGB1 (amphoterin)
# Protocol: as §1, §2
# [3] = biological target: T2, S100A9
# Protocol: as §1, §2
# [4] = biological target: T3, S100A12
# Protocol: as §1, §2
Binder,Kd [1],Kd [2],Kd [3],Kd [4]
B1,39 nM,7 nM,25 nM,44 nM
B2,35 nM,7 nM,27 nM,36 nM
